Legend:
AncSZ = experiment: phosphorylation enrichment, bacterial display (enrichment ratio); higher = better substrate or ligand; peptides without Tyr show the background
EPHB1 = EPHB1 (UniProt P54762); experiment: as above
EPHB2 = EPHB2 (UniProt P29323); experiment: as above
FGFR1 = FGFR1 (UniProt P11362); experiment: as above
FGFR3 = FGFR3 (UniProt P22607); experiment: as above
Fer (mouse) = experiment: as above
Fes = Fes (UniProt P07332); experiment: as above
Fyn = Fyn (UniProt P06241); experiment: as above
Hck = Hck (UniProt P08631); experiment: as above
Jak2 = Jak2 (UniProt O60674); experiment: as above
MERTK = MERTK (UniProt Q12866); experiment: as above
c-Abl (mouse) = experiment: as above
c-Src = experiment: as above
Grb2 SH2 = Grb2 SH2 (UniProt P62993); experiment: SH2 binding enrichment of the phosphorylated peptide, bacterial display (enrichment ratio); higher = better substrate or ligand; peptides without Tyr show the background
SHP2-C SH2 = experiment: as above
c-Src SH2 = experiment: as above
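Throughout, for SH2 binding enrichment of the phosphorylated peptide, bacterial display: peptide library displayed on the E. coli surface as eCPX fusions, selected cells deep-sequenced, score is each peptide's frequency after selection divided by its frequency in the input.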
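Throughout, for phosphorylation enrichment, bacterial display: 11-residue human phosphosite peptides and single-mutation variants displayed on the E. coli surface, counted by deep sequencing, each peptide's frequency after selection divided by its frequency in the unselected input library; frequency after pTyr selection over input frequency; kinase dosed for 20-30% of maximal phosphorylation in three min.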

Sequence of Fyn (P06241 whole entry, looked up): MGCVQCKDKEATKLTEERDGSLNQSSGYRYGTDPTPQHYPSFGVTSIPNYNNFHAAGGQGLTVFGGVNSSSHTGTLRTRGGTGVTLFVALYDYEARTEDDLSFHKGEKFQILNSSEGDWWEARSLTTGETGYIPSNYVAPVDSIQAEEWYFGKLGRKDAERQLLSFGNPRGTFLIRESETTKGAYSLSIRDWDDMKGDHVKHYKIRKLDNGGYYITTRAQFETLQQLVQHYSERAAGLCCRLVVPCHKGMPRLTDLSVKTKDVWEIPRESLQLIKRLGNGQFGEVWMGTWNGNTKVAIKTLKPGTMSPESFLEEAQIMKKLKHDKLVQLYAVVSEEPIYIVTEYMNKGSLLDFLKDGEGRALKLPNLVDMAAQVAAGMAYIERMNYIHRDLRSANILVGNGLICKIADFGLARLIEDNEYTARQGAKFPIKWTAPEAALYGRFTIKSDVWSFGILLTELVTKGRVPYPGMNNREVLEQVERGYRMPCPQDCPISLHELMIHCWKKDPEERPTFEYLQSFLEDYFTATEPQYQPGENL
Sequence of FGFR3 (P22607 whole entry, looked up): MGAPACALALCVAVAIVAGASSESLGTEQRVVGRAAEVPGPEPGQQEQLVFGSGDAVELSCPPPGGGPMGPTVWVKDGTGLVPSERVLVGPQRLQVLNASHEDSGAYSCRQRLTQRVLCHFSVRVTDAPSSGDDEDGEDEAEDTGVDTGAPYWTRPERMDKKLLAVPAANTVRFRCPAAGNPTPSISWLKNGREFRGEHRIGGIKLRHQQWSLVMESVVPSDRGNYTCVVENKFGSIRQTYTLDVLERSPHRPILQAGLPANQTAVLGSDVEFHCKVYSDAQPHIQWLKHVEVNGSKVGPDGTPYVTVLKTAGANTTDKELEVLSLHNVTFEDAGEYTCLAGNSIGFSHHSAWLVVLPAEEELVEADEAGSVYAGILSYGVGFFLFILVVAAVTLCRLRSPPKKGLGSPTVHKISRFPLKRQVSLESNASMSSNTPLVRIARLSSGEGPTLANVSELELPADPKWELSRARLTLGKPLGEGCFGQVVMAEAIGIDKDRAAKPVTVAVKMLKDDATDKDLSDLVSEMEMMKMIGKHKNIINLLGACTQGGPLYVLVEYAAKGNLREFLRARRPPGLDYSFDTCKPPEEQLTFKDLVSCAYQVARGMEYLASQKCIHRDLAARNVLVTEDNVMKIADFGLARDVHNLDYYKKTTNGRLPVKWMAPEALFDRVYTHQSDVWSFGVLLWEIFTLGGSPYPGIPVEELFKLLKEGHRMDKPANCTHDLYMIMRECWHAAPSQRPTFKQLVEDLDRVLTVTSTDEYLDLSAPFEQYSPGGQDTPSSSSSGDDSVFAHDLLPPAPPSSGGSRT
Sequence of FGFR1 (P11362 whole entry, looked up): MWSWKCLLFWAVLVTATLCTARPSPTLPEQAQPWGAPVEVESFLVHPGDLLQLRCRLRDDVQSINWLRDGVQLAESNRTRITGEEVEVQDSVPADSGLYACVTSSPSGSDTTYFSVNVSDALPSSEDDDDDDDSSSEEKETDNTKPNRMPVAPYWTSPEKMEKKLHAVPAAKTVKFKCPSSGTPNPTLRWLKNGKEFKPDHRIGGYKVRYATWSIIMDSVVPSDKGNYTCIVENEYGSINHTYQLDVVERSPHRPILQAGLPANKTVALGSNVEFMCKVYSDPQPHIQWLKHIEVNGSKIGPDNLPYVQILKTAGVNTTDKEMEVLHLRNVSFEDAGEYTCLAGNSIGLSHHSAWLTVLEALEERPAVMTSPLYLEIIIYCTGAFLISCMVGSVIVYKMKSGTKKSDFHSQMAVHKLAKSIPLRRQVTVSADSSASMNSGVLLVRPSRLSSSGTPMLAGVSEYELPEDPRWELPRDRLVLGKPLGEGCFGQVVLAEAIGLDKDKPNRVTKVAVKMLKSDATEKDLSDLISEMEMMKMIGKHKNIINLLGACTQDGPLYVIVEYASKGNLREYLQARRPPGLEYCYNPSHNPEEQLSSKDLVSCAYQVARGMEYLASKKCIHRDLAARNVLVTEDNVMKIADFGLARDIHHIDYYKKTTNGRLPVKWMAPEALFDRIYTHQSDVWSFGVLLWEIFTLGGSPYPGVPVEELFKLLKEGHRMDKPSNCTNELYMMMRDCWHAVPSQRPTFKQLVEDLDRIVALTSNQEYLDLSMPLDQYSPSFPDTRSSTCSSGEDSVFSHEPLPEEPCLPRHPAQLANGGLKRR
Sequence of EPHB1 (P54762 whole entry, looked up): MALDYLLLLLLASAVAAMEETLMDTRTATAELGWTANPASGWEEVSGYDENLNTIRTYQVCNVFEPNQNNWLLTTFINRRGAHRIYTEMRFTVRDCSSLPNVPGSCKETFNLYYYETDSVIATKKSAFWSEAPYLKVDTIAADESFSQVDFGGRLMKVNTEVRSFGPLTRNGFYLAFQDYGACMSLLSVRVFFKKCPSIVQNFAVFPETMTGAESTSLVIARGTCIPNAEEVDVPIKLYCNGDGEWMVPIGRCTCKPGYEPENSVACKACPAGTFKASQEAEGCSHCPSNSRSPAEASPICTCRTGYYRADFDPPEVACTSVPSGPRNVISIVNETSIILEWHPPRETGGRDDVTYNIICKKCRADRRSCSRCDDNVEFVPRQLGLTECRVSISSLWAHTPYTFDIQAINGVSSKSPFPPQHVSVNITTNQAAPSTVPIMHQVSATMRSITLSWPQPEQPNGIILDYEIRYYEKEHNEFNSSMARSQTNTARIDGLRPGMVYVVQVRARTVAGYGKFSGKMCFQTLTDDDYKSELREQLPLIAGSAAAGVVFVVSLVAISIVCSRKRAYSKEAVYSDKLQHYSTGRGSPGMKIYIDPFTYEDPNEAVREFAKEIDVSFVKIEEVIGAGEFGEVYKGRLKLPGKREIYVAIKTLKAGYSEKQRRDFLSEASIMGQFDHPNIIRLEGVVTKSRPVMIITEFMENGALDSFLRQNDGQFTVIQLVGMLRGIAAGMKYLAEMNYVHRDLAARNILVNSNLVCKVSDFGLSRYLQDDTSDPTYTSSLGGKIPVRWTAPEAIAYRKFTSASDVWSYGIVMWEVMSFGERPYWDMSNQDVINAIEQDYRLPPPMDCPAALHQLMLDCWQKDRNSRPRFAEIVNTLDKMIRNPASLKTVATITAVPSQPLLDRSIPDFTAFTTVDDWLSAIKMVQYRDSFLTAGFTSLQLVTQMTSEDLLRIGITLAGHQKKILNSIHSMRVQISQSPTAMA
Sequence of EPHB2 (P29323 whole entry, looked up): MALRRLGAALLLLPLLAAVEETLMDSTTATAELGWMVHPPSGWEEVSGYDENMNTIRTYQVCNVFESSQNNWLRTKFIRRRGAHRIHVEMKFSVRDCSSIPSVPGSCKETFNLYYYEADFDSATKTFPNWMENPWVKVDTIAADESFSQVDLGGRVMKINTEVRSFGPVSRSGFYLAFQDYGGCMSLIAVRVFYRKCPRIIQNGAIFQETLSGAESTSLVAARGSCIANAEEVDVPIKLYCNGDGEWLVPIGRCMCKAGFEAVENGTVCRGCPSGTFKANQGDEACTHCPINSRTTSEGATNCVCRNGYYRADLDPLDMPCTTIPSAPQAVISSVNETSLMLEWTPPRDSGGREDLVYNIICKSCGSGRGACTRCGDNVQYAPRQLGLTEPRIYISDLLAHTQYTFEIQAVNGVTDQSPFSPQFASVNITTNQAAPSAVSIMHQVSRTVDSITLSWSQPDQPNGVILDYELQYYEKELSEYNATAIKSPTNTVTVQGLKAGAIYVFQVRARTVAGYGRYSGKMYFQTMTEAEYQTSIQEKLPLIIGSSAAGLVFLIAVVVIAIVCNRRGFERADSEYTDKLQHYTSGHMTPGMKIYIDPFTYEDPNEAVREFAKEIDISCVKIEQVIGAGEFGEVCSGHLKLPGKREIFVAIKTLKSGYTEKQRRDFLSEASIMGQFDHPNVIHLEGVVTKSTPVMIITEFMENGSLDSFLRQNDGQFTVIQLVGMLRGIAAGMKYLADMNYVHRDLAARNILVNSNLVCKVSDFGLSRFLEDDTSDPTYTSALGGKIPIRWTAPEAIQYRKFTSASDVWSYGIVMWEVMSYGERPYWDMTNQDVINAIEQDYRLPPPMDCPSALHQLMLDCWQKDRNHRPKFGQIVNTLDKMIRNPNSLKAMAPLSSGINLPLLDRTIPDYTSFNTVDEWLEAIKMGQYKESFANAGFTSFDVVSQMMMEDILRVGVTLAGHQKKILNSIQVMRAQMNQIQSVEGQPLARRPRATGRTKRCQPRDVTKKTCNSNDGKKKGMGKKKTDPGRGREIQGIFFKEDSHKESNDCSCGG
Sequence of Grb2 SH2 (P62993 whole entry, looked up): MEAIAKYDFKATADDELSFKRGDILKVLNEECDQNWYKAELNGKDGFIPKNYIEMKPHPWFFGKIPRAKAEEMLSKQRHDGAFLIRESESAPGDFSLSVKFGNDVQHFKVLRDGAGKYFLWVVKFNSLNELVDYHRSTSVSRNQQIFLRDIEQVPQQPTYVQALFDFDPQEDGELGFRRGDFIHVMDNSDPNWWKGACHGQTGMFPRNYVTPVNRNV
Sequence of Hck (P08631 whole entry, looked up): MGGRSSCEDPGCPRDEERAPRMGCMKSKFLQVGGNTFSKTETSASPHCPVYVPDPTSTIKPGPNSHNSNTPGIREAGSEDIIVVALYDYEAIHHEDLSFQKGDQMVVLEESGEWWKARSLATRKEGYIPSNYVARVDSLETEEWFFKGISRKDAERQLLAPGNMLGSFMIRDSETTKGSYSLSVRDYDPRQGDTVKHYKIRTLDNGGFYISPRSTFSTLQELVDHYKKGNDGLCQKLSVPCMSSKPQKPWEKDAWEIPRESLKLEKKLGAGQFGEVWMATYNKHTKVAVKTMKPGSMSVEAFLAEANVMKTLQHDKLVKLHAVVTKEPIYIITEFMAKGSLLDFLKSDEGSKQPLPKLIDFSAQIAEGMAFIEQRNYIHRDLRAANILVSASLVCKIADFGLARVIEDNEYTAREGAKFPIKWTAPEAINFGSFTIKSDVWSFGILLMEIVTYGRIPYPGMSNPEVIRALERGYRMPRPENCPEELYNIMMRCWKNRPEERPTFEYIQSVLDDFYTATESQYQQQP

Sequence	phosphorylation enrichment (AncSZ)	phosphorylation enrichment (EPHB1)	phosphorylation enrichment (EPHB2)	phosphorylation enrichment (FGFR1)	phosphorylation enrichment (FGFR3)	phosphorylation enrichment (Fer (mouse))	phosphorylation enrichment (Fes)	phosphorylation enrichment (Fyn)	phosphorylation enrichment (Hck)	phosphorylation enrichment (Jak2)	phosphorylation enrichment (MERTK)	phosphorylation enrichment (c-Abl (mouse))	phosphorylation enrichment (c-Src)	SH2 binding enrichment (Grb2 SH2)	SH2 binding enrichment (SHP2-C SH2)	SH2 binding enrichment (c-Src SH2)
NLAAQYTTVGR [SGSH_Y240_D235N]	0.444	0.304	0.312	0.376	0.375	0.36	0.489	0.401	0.568	0.414	0.438	0.416	0.494	0.655	1.92	4.5
NLMPAYHKCIQ [CYP21A2_Y190_Y191H]	0.91	0.501	0.586	0.493	0.707	0.507	1.01	0.519	0.521	0.969	0.518	0.71	0.501	0.878	0.5	0.65
NNKKDYFDMFE [SLC26A3_Y526_K521N_YF]	1.08	1.12	0.791	5.31	3.74	0.485	1.16	0.415	0.504	0.991	0.46	0.723	0.488	0.707	0.479	0.518
NQDRTYYESVR [SPEN_Y632]	0.897	0.569	0.661	1.02	0.828	0.993	0.819	1.4	2.05	0.762	1.02	0.787	2	0.924	0.963	5
NQELIYEGQRL [TBK1_Y354_R357Q]	1.71	1	1.11	0.628	0.739	11.6	1.42	7.4	7.73	0.956	1.52	2.65	6.85	0.537	0.709	0.352
NQNIGYELGHR [KCNN3_Y268_K269E]	0.496	0.449	0.318	0.343	0.403	0.289	0.486	0.528	0.37	0.348	0.276	0.425	0.305	0.892	0.683	0.672
NRVEIYEKTVE [CYFIP1_Y108]	1.07	0.713	0.654	0.523	0.696	0.582	1.18	0.511	0.628	1.27	0.5	0.919	0.599	0.803	0.85	0.678
NTFEKYWPFFQ [GATM_Y103_YF]	0.987	0.488	0.512	1.08	1.08	0.429	1.09	0.69	1.42	0.898	0.886	0.795	0.935	1.5	1.24	0.926
NTVLGYFIGRI [GARS1_Y408]	0.973	0.48	0.44	0.443	0.617	0.479	1.09	0.427	0.495	0.735	0.423	0.634	0.348	1.14	1.08	0.637
NVQIVYKPVDL [MAPT_Y627_S622N]	0.955	0.507	0.492	0.532	0.648	0.502	0.903	0.414	0.477	0.796	0.354	0.723	0.415	0.982	0.738	0.58
NWGSPYKSNGC [ZNF347_Y261]	0.894	0.459	0.569	0.48	0.546	0.48	1.09	0.373	0.52	0.759	0.41	0.667	0.52	0.819	0.725	0.586
PATINYPFEKG [NDUFS8_Y84]	0.88	0.65	0.218	0.521	0.565	0.595	1.18	1.04	0.342	0.776	0.556	0.491	0.674	1.09	0.587	0.663
PEADKYHLTFA [FGG_Y300_R301H_YF]	1.88	2.12	0.788	0.725	1.5	0.802	1.8	0.73	0.939	1.98	0.75	2.22	1.03	0.637	0.254	0.301
PEADKYRLPYA [FGG_Y300_T303P]	0.763	0.89	0.715	0.439	0.552	0.521	1	0.467	0.598	1.33	0.477	0.571	0.488	0.741	0.612	0.402
PEFMVYKPQME [CCRL2_Y170_V168M]	1.03	0.665	0.624	0.592	0.867	0.476	1.06	0.494	0.661	0.898	0.464	0.685	0.884	0.794	0.635	0.457
PESCFYKESWL [IQGAP2_Y630_L629F]	1.51	0.772	0.671	0.707	1.31	0.973	1.57	0.616	0.555	0.941	0.538	0.766	0.516	1.05	0.823	0.63
